This passage reports Kd and binding signal (% of WT 3'-UTR) results from publication PMC8518580.

Holding throughout (conditions): EMSA: LightShift REMSA kit, 30 min, 25 °C, 5% native PAGE (buffer not given); MST: Monolith NT.115, RED-labelled NbeEF1A, labelling in PBS, temperature not …
The test system of series [1] is NbeEF1A (eEF1A) (Nicotiana benthamiana). In words: MST.
For series [2] the test system is unchanged. In words: MST. The source holds these as a separate data set.
For series [3] the test system is unchanged. In words: EMSA.

Take CWMV RNA1 (+) 3'-UTR: in series [1], the Kd was found to be 7.32 nM.

As for CWMV RNA2 (+) 3'-UTR, the dissociation constant Kd in series [1] was determined as 12.5 nM; in series [2] it was 6.51 nM.

As for RNA1 3'-UTR del6730-6987, in series [1], the Kd stood at 67.7 nM.

Take RNA1 3'-UTR del6988-7147: the Kd in series [1] was 964 nM.

Take RNA2 3'-UTR dSL-1 (del3419-3429): the equilibrium dissociation constant (Kd) in series [2] is 117 nM.

Regarding RNA2 3'-UTR dSL-2 (del3469-3471), the Kd in series [2] was 91.7 nM.

Consider RNA2 3'-UTR dSL-3 (del3500-3503), for which the Kd in series [2] was 33.5 nM.

As for RNA2 3'-UTR dSL-4 (del3505-3509), in series [2], the Kd turned out to be 113 nM.

As to RNA2 3'-UTR dSL-5 (del3532-3535), the dissociation constant (Kd) in series [2] was determined as 36 nM.

For the substance RNA2 3'-UTR dSL-6 (del3561-3565), the Kd in series [2] is 998 nM. In addition, the binding signal (% of WT 3'-UTR) in series [3] was 6.

Regarding RNA2 3'-UTR del3174-3406, the Kd in series [1] came out at 68.5 nM.

Consider RNA2 3'-UTR del3407-3569, for which, in series [1], the Kd is 997 nM.
